Assays:
[1] = substrate: O=c1ccn([C@@H]2O[C@H](COP(=O)(O)O)[C@@H](O)[C@H]2F)c(=O)[nH]1; conditions: Homo sapiens
Description: (§1) Activity at human recombinant thymidylate synthase

[2] = substrate: O=c1ccn([C@H]2C[C@H](O)[C@@H](COP(=O)(O)O)O2)c(=O)[nH]1; conditions: Homo sapiens
Description: as §1

B1: Thymidylate synthase (Homo sapiens), P04818 (protein)
chain: MPVAGSELPRRPLPPAAQERDAEPRPPHGELQYLGQIQHILRCGVRKDDRTGTGTLSVFGMQARYSLRDEFPLLTTKRVFWKGVLEELLWFIKGSTNAKELSSKGVKIWDANGSRDFLDSLGFSTREEGDLGPVYGFQWRHFGAEYRDMESDYSGQGVDQLQRVIDTIKTNPDDRRIIMCAWNPRDLPLMALPPCHALCQFYVVNSELSCQLYQRSGDMGLGVPFNIASYALLTYMIAHITGLKPGDFIHTLGDAHIYLNHIEPLKIQLQREPRPFPKLRILRKVEKIDDFKAEDFQIEGYNPHPTIKMEMAV
In the case of B1, the Km [1] is reported as 12.2 µM and the Km [2] is reported as 5.25 µM.

From ChEMBL document CHEMBL1144764, “A molecular modeling study of the interaction of 2'-fluoro-substituted analogues of dUMP/FdUMP with thymidylate synthase” (Bioorg Med Chem Lett, 2008)
